Test results from PMC9696579 (Nature structural & molecular biology, 2022).

Biological target: mouse PKA-Cα (Mus musculus, UniProt P05132)
Assay: Surface plasmon resonance
Details: SPR; mouse PKA-Cα; ATP and MgCl2 present

- binding to PKA-Cα: no PKA-C binding was observed
B1: SMO pCT WRR mutant: SMO pCT harboring the WRR mutation, GST-tagged for SPR (protein)
chain: KRIKKSKMIAKAFSKRRELLQNPGQELSFSMHTVSHDGPVAGLAFDLNEPSADVSSAAAQHVTKMVAAAGAILPQDVSVTPVATPVPPEEQAN
modifications: left off: GST, end not stated, kept
